Results from patent US20050106581A1, “Modified phosphodiesterase polypeptides with altered physiochemical properties” (priority 2002, published 2005).

What was measured:
[1] = Qualitative investigation of aggregation by size exclusion chromatography (gel filtration); type: physicochemical; details: Superose 12, compared to the five isoforms of PDE4D (D3, D5-D8)
Experimental: The term “improved physicochemical properties” as used herein refers to a decrease in aggregate formation of polypeptides. For the purpose of definition, aggregate formation of the polypeptides of this invention is determined by quantitation of the fractions of a gelfiltration experiment in which aggregated PDE elutes, and of the fractions in which non-aggregated PDE elutes. The degree of aggregation is calculated in percent of non-aggregated PDE based on total (aggregated and non-aggregated) PDE. […] Chromatograms were recorded at 278 nm. […]
50 μl of Ni-NTA agarose purified isoform preparation was injected into a Superose 12 size exclusion column (type PC3.2/30; Amersham Pharmacia Biotech), equilibrated with 50 mM TrisHCl pH 7.7, 100 mM NaCl, 0.5 mM MgCl2 at a flow rate of 0.1 ml/min at 4° C. Chromatograms were recorded at 278 nm. […]

[2] = Quantification of aggregates and tubulin content (SDS-PAGE densitometry of SEC fractions); type: physicochemical; details: compared to isoforms D3 and D5 to D8
Source text: In a preferred embodiment, the invention provides a polypeptide comprising a PDE polypeptide sequence, with an amino-terminal deletion wherein the proportion of non-aggregated PDE in the total protein preparation is from 55 %, preferably from 60%, more preferably from 65%, most perferably from 68% to 100%, preferably to 90%, more preferably to 80%, most preferably to 70% of total protein, as determined by the quantitation of eluted fractions from a gel filtration of the PDE fractions. Quantitation was performed as follows: Equal volume aliquots of fractions from Size Exclusion Chromatography, run as hereinbefore described, were analyzed by SDS-PAGE (one gel per run and isoform, FIG. 3). […]
To determine the decrease in tubulin association, the ratio of PDE molecules per tubulin molecules in the preparation of PDE polypeptide was calculated by quantitation of SDS-PAGE. […] The tubulin content of PDE preparations was determined as follows: Equal volume aliquots of fractions from SEC were analyzed by SDS-PAGE (one gel per run and isoform, FIG. 3). Optical densities of Coomassie stained PDE and tubulin bands were integrated as described hereinbefore for PDE aggregation quantitation. […]
Quantification of Aggregates and Tubulin Content
Equal volume aliquots of fractions from SEC were analyzed by SDS-PAGE (one gel per run and isoform, FIG. 3). […]

B1: DC: PDE4D polypeptide with amino-terminal deletion starting at the LF1 splice site, SEQ ID No. 2, 6xHis tagged (protein, listed as Homo sapiens)
chain: MFDVDNGTSAGRSPLDPMTSPGSGLILQANFVHSQRRESFLYRSDSDYDLSPKSMSRNSSIASDIHGDDLIVTPFAQVLASLRTVRNNFAALTNLQDRAPSKRSPMCNQPSINKATITEEAYQKLASETLEELDWCLDQLETLQTRHSVSEMASNKFKRMLNRELTHLSEMSRSGNQVSEFISNTFLDKQHEVEIPSPTQKEKEKKKRPMSQISGVKKLMHSSSLTNSSIPRFGVKTEQEDVLAKELEDVNKWGLHVFRIAELSGNRPLTVIMHTIFQERDLLKTFKIPVDTLITYLMTLEDHYHADVAYHNNIHAADVVQSTHVLLSTPALEAVFTDLEILAAIFASAIHDVDHPGVSNQFLINTNSELALMYNDSSVLENHHLAVGFKLLQEENCDIFQNLTKKQRQSLRKMVIDIVLATDMSKHMNLLADLKTMVETKKVTSSGVLLLDNYSDRIQVLQNMVHCADLSNPTKPLQLYRQWTDRIMEEFFRQGDRERERGMEISPMCDKHNASVEKSQVGFIDYIVHPLWETWADLVHPDAQDILDTLEDNREWYQSTIPQSPSPAPDDPEEGRQGQTEKFQFELTLEEDGESDTEKDSGSQVEEDTSCSDSKTLCTQDSESTEIPLDEQVEEEAVGEEEESQPEACVIDDRSPDTHHHHHH
modifications: 6xHis tag; PDE4D_core (1)..(664); LF1_splice_site (2)..(2); UCR1_site_-13 (22)..(22); UCR1_site (35)..(35); SER54 (39)..(39); SER579 (564)..(564)
[1]
  Aggregate formation (gel filtration elution profile): decrease in aggregation
[2]
  Percentage of non-aggregated PDE4D based on total PDE4D protein: highest percentage of non-aggregated PDE4D
  Tubulin content (ratio between PDE4D and tubulin, total mass basis): significantly lower
